Assay results taken from PMC8092709 (Journal of Virology, 2021).

B1: HCoV-229E S1 (residues 1 to 536) with C-terminal Fc tag (Fc fusion)
chain: CQTTNGLNTSYSVCNGCVGYSENVFAVESGGYIPSDFAFNNWFLLTNTSSVVDGVVRSFQPLLLNCLWSVSGLRFTTGFVYFNGTGRGDCKGFSSDVLSDVIRYNLNFEENLRRGTILFKTSYGVVVFYCTNNTLVSGDAHIPFGTVLGNFYCFVNTTIGNETTSAFVGALPKTVREFVISRTGHFYINGYRYFTLGNVEAVNFNVTTAETTDFCTVALASYADVLVNVSQTSIANIIYCNSVINRLRCDQLSFDVPDGFYSTSPIQSVELPVSIVSLPVYHKHTFIVLYVDFKPQSGGGKCFNCYPAGVNITLANFNETKGPLCVDTSHFTTKYVAVYANVGRWSASINTGNCPFSFGKVNNFVKFGSVCFSLKDIPGGCAMPIVANWAYSKYYTIGSLYVSWSDGDGITGVPQPVEGVSSFMNVTLDKCTKYNIYDVSGVGVIRVSNDTFLNGITYTSTSGNLLGFKDVTKGTIYSITPCNPPDQLVVYQQAVVGAMLSENFTSYGFSNVVELPKFFYA
B2: HCoV-229E S1-RBD (residues 295 to 428) with C-terminal Fc tag (Fc fusion)
chain: VYHKHTFIVLYVDFKPQSGGGKCFNCYPAGVNITLANFNETKGPLCVDTSHFTTKYVAVYANVGRWSASINTGNCPFSFGKVNNFVKFGSVCFSLKDIPGGCAMPIVANWAYSKYYTIGSLYVSWSDGDGITGV

Molecular target: human aminopeptidase N (hAPN), residues 66 to 967 (human, UniProt P15144 66-967)
Sequence (P15144 66-967): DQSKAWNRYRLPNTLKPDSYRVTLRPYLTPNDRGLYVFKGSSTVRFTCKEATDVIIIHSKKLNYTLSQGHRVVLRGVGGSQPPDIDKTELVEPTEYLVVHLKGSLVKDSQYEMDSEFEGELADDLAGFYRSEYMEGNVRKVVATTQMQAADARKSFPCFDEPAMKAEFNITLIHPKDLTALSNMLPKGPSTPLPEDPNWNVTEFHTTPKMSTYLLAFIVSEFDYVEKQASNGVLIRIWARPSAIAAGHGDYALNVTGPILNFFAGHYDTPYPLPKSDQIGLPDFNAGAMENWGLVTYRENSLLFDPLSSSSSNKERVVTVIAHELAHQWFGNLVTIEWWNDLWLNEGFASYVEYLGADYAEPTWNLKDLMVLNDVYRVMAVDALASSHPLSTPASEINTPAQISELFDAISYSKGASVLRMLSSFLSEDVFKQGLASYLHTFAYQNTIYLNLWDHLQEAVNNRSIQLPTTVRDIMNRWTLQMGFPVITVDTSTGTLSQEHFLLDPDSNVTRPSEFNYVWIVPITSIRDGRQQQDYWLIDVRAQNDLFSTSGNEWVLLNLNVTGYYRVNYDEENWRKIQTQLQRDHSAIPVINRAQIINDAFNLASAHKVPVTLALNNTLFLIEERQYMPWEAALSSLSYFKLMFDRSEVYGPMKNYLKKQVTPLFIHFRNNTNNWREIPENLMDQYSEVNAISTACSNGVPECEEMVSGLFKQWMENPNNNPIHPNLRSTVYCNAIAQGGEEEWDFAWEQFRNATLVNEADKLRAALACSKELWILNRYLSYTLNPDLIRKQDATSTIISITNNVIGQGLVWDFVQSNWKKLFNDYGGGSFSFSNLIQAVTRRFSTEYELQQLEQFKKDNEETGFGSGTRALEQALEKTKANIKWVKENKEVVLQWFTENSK
Assay: SPR

Row | Binder | Kd | koff | kon
1 | B1 | 255 nM | 0.000226 s⁻¹ | 886 M⁻¹ s⁻¹
2 | B2 | 36 nM | 0.00115 s⁻¹ | 32000 M⁻¹ s⁻¹
